In patent US20260199499A1, “ANTI-PDL1 ANTIBODY-DRUG CONJUGATE AND USE” (SHANGHAI HENLIUS BIOTECH, INC., priority 2023, published 2026):
Blank lines part the entries; values can stand above or below the molecule they belong to.

Experiments:
human dendritic cells = assay type: cell-based
Experimental: (§1) Since some human immune cells such as antigen-presenting cells (macrophages, dendritic cells, etc.) express PDL1, the immunotoxicity of PDL1-targeted antibody-conjugated drugs is an inevitable problem. Human dendritic cells and macrophages, after induced differentiation, were digested and viable cells were counted using Vi-Cell XR cytometer. The cell suspension was adjusted to an appropriate concentration with a culture medium. 80 μl/well of the cell suspension was added to a cell culture plate, which was supplemented with 500 IU/mL of IFN-γ. The test drug was diluted with a gradient (5-fold dilutions). 20 μl of each of the diluted test articles was taken and added to the cell suspension in the cell culture plate, and the cell culture plate was placed in an incubator and cultured for 96 hours. 50 μl/well of a CellTiter-Glo solution (purchased from Promega) that had been thawed in advance and equilibrated to room temperature was added according to CellTiter-Glo operation instructions. The wells were mixed uniformly with a microwell plate shaker for 2 minutes and maintained at room temperature for 10 minutes. The […] signal was measured using Envision 2104 plate reader. SGN-PDL1V was used as one of the control molecules and was disclosed in U.S. Patent No. US 20210101982 A1.

human macrophages = assay type: cell-based
Experimental: as §1

[1] = tested on: human non-small cell lung cancer LU6437 PDX; assay: Anti-tumor effect, LU6437 PDX xenograft; assay type: in vivo, BALB/c nude mice; conditions: 3 mg/kg, once a week for three doses, day 21
Experimental: A revived tumor tissue was harvested from HuPrime® lung cancer xenograft model LU6437 tumor-bearing mice and cut into tumor blocks with a diameter of 2-3 mm, which were inoculated subcutaneously at the right anterior scapula of BALB/c nude mice. […] The average volume was 253.70 mm^3 in the actual groups. The day of grouping was defined as day 0. After the start of dosing, the mice were dosed once a week, for three doses, and the body weight and tumor size of the mice were measured twice a week. Clinical symptoms observed during the experiment were recorded. The tumor volume was calculated according to the following formula: tumor volume (mm3)=½×(a×b2) (wherein a represented the long diameter, and b represented the short diameter).

[2] = Preliminary pre-experiment, toxicity to mice; assay type: in vivo; conditions: dose of 8 mg/kg
From the text: For ethical considerations, the […] was not set in the experimental design.

[3] = tested on: human PDL1-positive cervical cancer LD1-0010-200614 PDX; assay: Anti-tumor effect, LD1-0010-200614 PDX xenograft; assay type: in vivo, Balb/c nude mice; conditions: free loaded drug, dose not given, day 35
Experimental: (§2) A human-derived PDL1-positive cervical cancer LD1-0010-200614 model was revived in Balb/c nude mice. Once the tumor had grown to 500-800 mm^3, the tumor tissue was surgically aseptically excised, and non-tumor tissues and necrotic tissues were removed. The tumor tissue was stripped and evenly cut into tissue blocks (about 25-35 mg) of about 3 mm×3 mm×3 mm in size, and then, which were inoculated subcutaneously on the right side of Balb/c nude mice. Once the average tumor volume of the mice for grouping reached 146.74 mm3, the mice were grouped randomly according to the size of the tumor volume, ensuring similar tumor volumes between groups. The day of grouping was defined as day 0. After the start of dosing, the body weight and tumor size of the mice were measured twice a week, and the mice were dosed once a week, for three doses. Clinical symptoms observed during the experiment were recorded. The tumor volume was calculated according to the following formula: tumor volume (mm3)=½×(a×b2) (wherein a represented the long diameter, and b represented the short diameter).

[4] = tested on: human PDL1-positive gastric cancer LD1-0017-200636 PDX; assay: Anti-tumor effect, LD1-0017-200636 PDX xenograft; assay type: in vivo, NU/NU mice; conditions: free loaded drug, dose not given, day 21
Experimental: as §2, with “gastric” for “cervical”, “LD1-0017-200636” for “LD1-0010-200614”, “NU/NU” for “Balb/c nude”, “30-60” for “25-35”, “138.70” for “146.74”

[5] = tested on: human PDL1-positive colorectal cancer LD1-2013-362125 PDX; assay: Anti-tumor effect, LD1-2013-362125 PDX xenograft; assay type: in vivo, NU/NU mice; conditions: free loaded drug, dose not given, day 31
Experimental: as §2, with “colorectal” for “cervical”, “LD1-2013-362125” for “LD1-0010-200614”, “NU/NU” for “Balb/c nude”, “156.99” for “146.74”

[6] = molecular target: T1, PDL1 on PDL1-positive cells NCI-H292 and NCI-H441 (UniProt Q9NZQ7 19-290, limits assumed); assay: flow cytometry on NCI-H292 cells, goat anti-human IgG detection
T1 construct: whole, on cells; Human tumor cell lines; also called CD274; B7-H1
T1 sequence (Q9NZQ7 19-290 limits assumed): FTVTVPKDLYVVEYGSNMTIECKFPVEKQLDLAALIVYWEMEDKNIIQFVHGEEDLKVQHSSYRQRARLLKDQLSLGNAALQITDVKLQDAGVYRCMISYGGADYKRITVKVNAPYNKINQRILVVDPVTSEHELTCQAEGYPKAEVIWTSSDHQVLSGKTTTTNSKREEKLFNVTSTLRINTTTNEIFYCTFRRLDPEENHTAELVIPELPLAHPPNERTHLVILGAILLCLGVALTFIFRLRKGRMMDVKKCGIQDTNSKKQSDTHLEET

Molecule: SGN-PDL1V: reference ADC of WO 2021067776 A1: SGN-PDL1V antibody moiety conjugated to MC-VC-PABC-MMAE [reference compound]
- concentration at which non-specific killing resulted (human dendritic cells): above 20 nM
- concentration at which non-specific killing resulted (human macrophages): above 20 nM
- TGI [1]: 24.11%
- toxicity to mice [2]: severely lethal toxicity

Molecule: CC[C@@]1(O)C(=O)OCc2c1cc1n(c2=O)Cc2c-1nc1cc3c(cc1c2CCCO)OCO3 [A1.3, (S)-7-ethyl-7-hydroxy-14-(3-hydroxypropyl)-10,13-dihydro-11H-[1,3]dioxolo[4,5-g]pyrano[3′,4′,6,7]indolizino[1,2-b]quinoline-8,11(7H)-dione]
- TGI [3]: 56.5%
- TGI [4]: 34.12%
- TGI [5]: 37.16%

- binding result [6]: binds
B1: MAB20 (antibody, human IgG1, lambda, N297A, V domains shown)
VH: EVQLVQSGGGLVKPGGSLRLSCAASGFTFSSYTMNWVRQAPGKGLEWVSSISSGSDYLYYADSVKGRFTISRDNAKNSLYLQMNSLRAEDTAVYYCARNELRWYPQAGAFDRWGQGTMVTVSS
VL: QSVVTQPPSMSAAPGQRVTISCSGSSSYIESSYVGWYQQLPGTAPRLLIYDDDMRPSGIPDRFSGSKSGTSATLAITGLQTGDEADYYCEIWRSGLGGVFGGGTKLTVLS
notes: also called anti-PDL1 antibody MAB20; Anti-PDL1_mAb
